# Test results published in article PMC3435532.
# System: FLI1-CTD K4bR
# Experiment: EMSA
# Conditions: non-acetylated baseline; normalized to Coomassie; Non-radioactive EMSA: 1 ug protein, 500 fmol biotinylated dsDNA, binding buffer per Uren et al. 2004 (not given); 6% gel in 0.5x TBE; protein stock 20 mM …
substance,measurement,value
ets-binding site oligonucleotide (wild type),binding signal (fold vs non-acetylated wild type),1
